Laboratory results as given in patent US20180016581.
Like-named read-outs stand apart in the source and are kept apart here.

Key:
[1] = target: GDF8 (myostatin), mature (Homo sapiens) (UniProt O14793); conditions: TrpdU at each W (n in listing)
[2] = target: T1, GDF11, mature (Homo sapiens) (UniProt O95390); conditions: TrpdU at each W (n in listing)
T1 sequence: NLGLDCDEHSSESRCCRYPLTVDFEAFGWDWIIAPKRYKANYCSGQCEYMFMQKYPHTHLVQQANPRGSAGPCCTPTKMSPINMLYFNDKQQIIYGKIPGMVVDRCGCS

GDF8 (myostatin), mature (Homo sapiens), sequence (O14793 267-375): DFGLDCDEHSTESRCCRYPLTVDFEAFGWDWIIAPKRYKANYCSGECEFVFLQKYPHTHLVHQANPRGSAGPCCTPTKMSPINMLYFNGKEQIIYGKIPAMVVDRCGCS

| Sequence | Kd ([1]; with Z-block) | Kd ([2]; 0.1 uM Z-block, low binding plateau) | Kd ([1]; 0.1 uM Z-block, 1.32E-10 M in p223) | Kd ([2]; with Z-block) |
| --- | --- | --- | --- | --- |
| TGTTAGAGTCCTTTATGAGTCTAG [14583-49_29] | 0.228 nM |  |  |  |
| CTCTGATACGGCCTTAGTGTTAGAGTCCTTTATGAGTCTAGACCACAACA [14583-49_3] |  | 1.11 nM | 0.13 nM |  |
| CTCTGAACTTCTAATGTCTCTTGCATTTTATCGCATTGATTTCTCCAACA [14583-19_3] | 1.16 nM |  |  | 0.42 nM |
